Results as given in US20240382559A1, “PHARMACEUTICAL COMPOSITION COMPRISING KAI1 POLYPEPTIDE FOR INHIBITION OF HEPATIC FIBROSIS AND USE THEREOF” (PUSAN NATIONAL UNIVERSITY INDUSTRY-UNIVERSITY COOPERATION …, priority 2021, published 2024).

Tests used:
[1] = tested on: mouse liver cell line (AML12); experiment: qPCR of fibrosis-related genes in TGF-β1-treated liver cell line, rhKAI1 / pepKAI1 WT / pepKAI1 Mut; assay type: cell-based; conditions: 200 or 500 ng/mL for 2 hours, then TGF-β1 2 ng/ml 24 hours
Method: The effect of wild type KAI1 peptide (pepKAI1 WT) or mutant KAI1 peptide (pepKAI1 Mut) on fibrosis induced by treatment with TGF-β1 was confirmed in mouse liver cell line (AML12).
Specifically, the AML 12 cells were treated with recombinant human KAI1 protein (rhKAI1), wild type KAI1 peptide (pepKAI1 WT), and mutant KAI1 peptide (pepKAI1 Mut) at a concentration of 200 ng/mL or 500 ng/mL, respectively, and reacted for 2 hours. Thereafter, the cells were treated with TGF-β1 at a concentration of 2 ng/ml and cultured for an additional 24 hours, and then the cells were collected. RNA from the collected cells was extracted with Trizol, cDNA was synthesized, and then changes in expression of fibrosis-related genes (α-SMA, Col1a1, TIMP1, Vimentin, TGF-β, and fibronectin) were confirmed by qPCR analysis.

[2] = tested on: mouse liver cell line (AML12); experiment: Immunoblotting of ZO-1 (EMT) in TGF-β1-treated liver cell line; assay type: cell-based; conditions: 500 ng/ml for 2 hours, then TGF-β1 24 or 48 hours
Method: The epithelial-mesenchymal transition (EMT) process has been proposed as one of the mechanisms of fibrosis. Therefore, the effect of KAI1 protein on the EMT process induced by TGF-1 in mouse liver cell line (AML12) was confirmed.
Specifically, the AML12 cells were treated with of KAI1 protein at a concentration of 500 ng/ml and reacted for 2 hours. Thereafter, the cells were treated with TGF-β1 and cultured for an additional 24 hours or 48 hours, and then the cells were collected. The collected cells were lysed in RIPA buffer containing protease inhibitors to extract proteins, and immunoblotting was performed by loading an equal amount of proteins. The protein expression level of ZO-1 was confirmed using an antibody of ZO-1 (anti-ZO antibody, 13663, Abcam), an epithelial biomarker during the EMT process. At this time, anti-tubulin antibody (T5168, Sigma-Aldrich) was used as an internal control, and HRP-conjugated anti-rabbit antibody (ADI-SAB-300-J, Enzo Life Sciences) was used as a secondary antibody.

liver cell line (AML12) = experiment: qPCR of fibrosis-related genes in TGF-β1-treated liver cell line, KAI1 protein; assay type: cell-based, mouse; conditions: 200 or 500 ng/mL for 2 hours, then TGF-β1 2 ng/mL 24 hours
Method: In order to confirm the activity of KAI1protein to inhibit hepatic fibrosis at the cellular level, the liver cell line (AML12), which had hepatic fibrosis induced by treatment with TGF-β1, was treated with KAI1 protein to confirm changes in the expression of fibrosis-related genes.
Specifically, the AML 12 cells were cultured in DMEM/F12 medium containing 10% (v/v) fetal bovine serum (FBS), 1% (w/v) penicillin-streptomycin, 10 μg/mL insulin, 5.5 μg/mL transferrin, 5 ng/mL selenium, and 40 ng/ml dexamethasone. The AML12 cells were treated with KAI1 protein at a concentration of 200 ng/ml or 500 ng/mL, respectively, and reacted for 2 hours. Thereafter, the cells were treated with TGF-β1, a fibrosis-inducing cytokine, at a concentration of 2 ng/mL and cultured for an additional 24 hours, and then the cells were collected. RNA from the collected cells was extracted with Trizol, cDNA was synthesized, and then changes in expression of fibrosis-related genes (α-SMA, Col1a1, TIMP1, and MMP9) were confirmed by qPCR analysis.

[3] = tested on: human hepatic stellate cell line (LX2); experiment: Immunoblotting of fibrosis-related proteins in hepatic stellate cell line; assay type: cell-based; conditions: 200 or 500 ng/mL, 24 or 48 hours, vs. untreated group
Method: (§1) Specifically, the LX2 cell line was treated with recombinant human KAI1 protein (rhKAI1) at a concentration of 200 ng/mL or 500 ng/mL, respectively. Thereafter, the cells were cultured for 24 hours or 48 hours and collected to confirm cell proliferation and fibrosis-related gene expression in the cells. The cell proliferation was measured using MTS assay. RNA from the collected cells was extracted with Trizol, cDNA was synthesized, and then changes in expression of fibrosis-related genes (α-SMA, Col1a1, Vimentin, TGF-β, and GFAP) were confirmed by qPCR analysis.
The expression of fibrosis-related proteins was confirmed in human hepatic stellate cell line (LX2) treated with KAI1 protein in the same manner as in Example 4.1. At this time, anti-Vimentin antibody (sc-5565, Santa Cruz Biotech.), anti-Col1α1 antibody (NBP1-30054, Novus Biological), anti-α-SMA antibody (A5228, Sigma-Aldrich), anti-GFAP antibody (Z0334, Dako), and anti-GAPDH antibody (MCA4739, AbD Serptec) were used as primary antibodies, and HRP-conjugated anti-rabbit antibody (ADI-SAB-300-J, Enzo Life Sciences) and anti-mouse antibody (ADI-SAB-100-J) were used as secondary antibodies.

[4] = tested on: acute hepatic fibrosis model mice; experiment: H&E staining of liver tissue in CCl4 acute hepatic fibrosis animal model; assay type: in vivo; conditions: C57BL/6 male mice, CCl4 i.p. twice a week; 4 μg KAI1 protein i.p. per mouse on day 8, liver extracted day 11
Method: (§2) Specifically, 7-week-old C57BL/6 male mice was prepared, and CCl4 was diluted in corn oil at a concentration of 1 mL/kg. In order to induce acute liver injury, the mice were injected intraperitoneally with the diluted CCl4 twice a week. As a control group, the mice were intraperitoneally injected with the same amount of the corn oil.
(§3) As a KAI1 protein, a polypeptide (Human CD82/KAI-1 Protein (His Tag), Sino Biological Inc.) comprising a KAI1 fragment comprising a polypeptide (extracellular domain, SEQ ID NO: 4) consisting of the 111st to 228th amino acid sequence from the N terminus in a polypeptide consisting of the amino acid sequence of SEQ ID NO: 1 was used. On the 8th day after the start of the experiment, 4 μg of KAI1 protein was injected intraperitoneally per mouse, and on the 11th day, the mice were sacrificed and liver tissue was extracted.
The liver tissue extracted in Example 2.1. was fixed in 10% (v/v) formalin solution. Thereafter, the liver tissue was embedded in paraffin and sectioned to a thickness of 4 μm to prepare tissue sections. After deparaffinization and superhydration, H&E (hematoxylin & eosin) staining was performed and observed under an optical microscope.

[5] = tested on: human hepatic stellate cell line (LX2); experiment: qPCR of fibrosis-related genes in hepatic stellate cell line; assay type: cell-based; conditions: rhKAI1 200 or 500 ng/mL, 24 or 48 hours
Method: (§4) It is known that fibrosis occurs due to excessive proliferation and activation of hepatic stellate cells. Therefore, changes in fibrosis-related gene expression by treatment with KAI1 protein were confirmed in human hepatic stellate cell line (LX2).
as §1

[6] = tested on: acute hepatic fibrosis model mice; experiment: qPCR of fibrosis-related genes in liver tissue of CCl4 acute hepatic fibrosis animal model; assay type: in vivo, mouse; conditions: 4 μg KAI1 protein i.p. day 8, liver day 11, vs. CCl4
Method: as §2, §3
RNA was obtained from the liver tissue extracted in Example 2.1. The RNA from the liver tissue was obtained using Favorgen® Trizol according to the manufacturer's instructions. The RNA was reverse transcribed into cDNA using a cDNA synthesis kit (Bioneer corp.). Thereafter, real-time PCR (qPCR) was performed to confirm changes in the expression levels of fibrosis-related genes Col1a1 (collagen type 1), fibronectin, and TGFβ1 (transforming growth factor-β1).

[7] = tested on: human hepatic stellate cell line (LX2); experiment: qPCR of senescence-related genes in hepatic stellate cell line; assay type: cell-based; conditions: 200 or 500 ng/mL, 24 or 48 hours, vs. control group
Method: as §1
It is known that hepatic stellate cells can inhibit hepatic fibrosis by inducing senescence in the liver. Therefore, the expression of senescence-related genes (HGMA1, p16, p21 and p53, SIRT1) was confirmed in human hepatic stellate cell line (LX2) treated with KAI1 protein in the same manner as in Example 4.1.

[8] = tested on: human hepatic stellate cell line (LX2); experiment: Cell proliferation by MTS assay in hepatic stellate cell line; assay type: cell-based; conditions: rhKAI1 200 or 500 ng/mL, 24 or 48 hours
Method: as §4, §1

[9] = tested on: human hepatic stellate cell line (LX2); experiment: Immunoblotting of senescence-related proteins in hepatic stellate cell line; assay type: cell-based; conditions: 200 or 500 ng/mL, 24 or 48 hours, vs. untreated group
Method: as §1
The expression of senescence-related proteins was confirmed in human hepatic stellate cell line (LX2) treated with KAI1 protein in the same manner as in Example 4.1. At this time, anti-SIRT1 antibody (ab32441, Abcam), anti-p16 antibody (10883-1-ap, Protein tech.), and anti-GAPDH antibody (MCA4739, AbD Serptec) were used as primary antibodies, and HRP-conjugated anti-rabbit antibody (ADI-SAB-300-J, Enzo Life Sciences) and anti-mouse antibody (ADI-SAB-100-J) were used as secondary antibodies.

pepKAI1 Mut: mutant peptide with both Y*C and EED substituted with alanine, NRPEVTAPASCEVKGAAANS (SEQ ID NO: 3) (Mutant KAI1 polypeptide)
expression of fibrosis-related genes (α-SMA, Col1a1, TIMP1, Vimentin, TGF-β, fibronectin) increased by TGF-β1 (qPCR) [1]: not reduced

pepKAI1 WT: 20 amino acid functional KAI1 peptide with Y*C and EED motifs, NRPEVTYPCSCEVKGEEDNS (SEQ ID NO: 2) (Wild type KAI1 polypeptide)
expression of fibrosis-related genes (α-SMA, Col1a1, TIMP1, Vimentin, TGF-β, fibronectin) increased by TGF-β1 (qPCR) [1]: reduced
fibrosis-related gene expression compared to the group treated with rhKAI1 protein (qPCR) ([1]; comparison with rhKAI1): further reduced

B1: KAI1 protein: Human CD82/KAI-1 Protein (His Tag), Sino Biological; comprises extracellular domain, amino acids 111 to 228 of SEQ ID NO: 1 (SEQ ID NO: 4) (protein)
chain: GKLKQEMGGIVTELIRDYNSSREDSLQDAWDYVQAQVKCCGWVSFYNWTDNAELMNRPEVTYPCSCEVKGEEDNSLSVRKGFCEAPGNRTQSGNHPEDWPVYQEGCMEKVQAWLQENL
modifications: His tag; Extracellular domain of recombinant human KAI1 protein
expression of ZO-1 protein reduced by TGF-β1 (immunoblotting) [2]: recovered
expression of fibrosis-related genes (α-SMA, Col1a1, TIMP1, MMP9) increased by TGF-β1 (qPCR) (liver cell line (AML12)): reduced
protein expression of Col1α1 (immunoblotting) [3]: reduced
protein expression of GFAP (immunoblotting) [3]: increased
protein expression of Vimentin (immunoblotting) [3]: reduced
protein expression of α-SMA (immunoblotting) [3]: reduced
degree of cell damage and inflammatory cell infiltration (H&E staining of liver tissue) [4]: reduced
gene expression of Col1a1 (qPCR) [5]: significantly reduced
gene expression of GFAP, marker gene for resting stellate cells (qPCR) [5]: tendency to increase
gene expression of TGF-β (qPCR) [5]: significantly reduced
gene expression of Vimentin (qPCR) [5]: significantly reduced
gene expression of α-SMA (qPCR) [5]: significantly reduced
gene expression of Col1a1 in liver tissue (qPCR) [6]: reduced
gene expression of TGF-β1 in liver tissue (qPCR) [6]: reduced
gene expression of fibronectin in liver tissue (qPCR) [6]: reduced
expression of SIRT1, a senescence inhibition marker (qPCR) [7]: reduced
expression of senescence marker gene HGMA1 (qPCR) [7]: increased
expression of senescence marker gene p16 (qPCR) [7]: increased
expression of senescence marker gene p21 (qPCR) [7]: increased
expression of senescence marker gene p53 (qPCR) [7]: increased
cell proliferation (MTS assay) [8]: significantly reduced
expression of SIRT1, a senescence inhibition marker protein (immunoblotting) [9]: reduced
expression of p16, a senescence marker protein (immunoblotting) [9]: increased
